The record followed here is the supplement of paper PMC7877785.

The nature of this series: self-splicing fitness, log relative to wild type (ln ratio); higher = more splicing; Tetrahymena group I intron in knt gene, E. coli kanamycin selection, DiMSum; sequences stand for … in CUCUCU…GGAGGGAAAAGUUAUCAGGCAUGCACCUGGUAGCUAGUCUUUAAACCAAUAGAUUGCAUCGGUUUAAAAGGCAAGACCGUCAAAUUGCGGGAAAGGGGUCAACAGCCGUUCAGUACCAAGUCUCAGGGGAAACUUUGAGAUGGCCUUGCAAAGGGUAUGGUAAUAAGCUGACGGACAUGGUCCUAACCACGCAGCCAAGUCCUAAGUCAACAGAUCUUCUGUUGAUAUGGAUGCAGUUCACAGACUAAAUGUCGGUCGGGGAAGAUGUAUUCUUCUCAUAAGAUAUAGUCGGACCUCUCCUUAAUGGGAGCUAGCGGAUGAAGUGAUGCAACACUGGAGCCGCUGGGAACUAAUUUGUAUGCGAAAGUAUAUUGAUUAGUUUUGGAGUACUCGUGGUCG
The procedure, abridged:
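DiMSum derived fitness as the error-weighted combination of fold changes across replicates, kanamycin versus no kanamycin, normalised to wild type. E. coli BL21(DE3) held the library, which randomised all eight P1ex-region intron nucleotides within the knt kanamycin-resistance gene on pET-22b(+). Six replicate transformations grew overnight at 37°C or 30°C on LB agar with or without 25 μg/mL kanamycin, also containing 100 μg/mL carbenicillin, 50 μM IPTG and 0.2% rhamnose, and pooled colonies were amplicon-sequenced on an Illumina HiSeq 2500.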

± gives the uncertainty stated by the source.

As for UCUGAGCAAUAUUACGUCUU, the “self-splicing fitness (ln)” value reads like this: (30 °C) -2.36 ± 0.21; (37 °C) -2.9 ± 0.24. With AACUAGCAAUAUUACGGUAU, the “self-splicing fitness (ln)” value runs as follows: (30 °C) -1.31 ± 0.072; (37 °C) -0.479 ± 0.092. Take GGUUAGCAAUAUUACGUGAC: the “self-splicing fitness (ln)” value runs as follows: (30 °C) -2.98 ± 0.28; (37 °C) -2.33 ± 0.34. For AGUCAGCAAUAUUACGCCUA the same measures were -0.754 ± 0.12 and 0.18 ± 0.15. For UUAGAGCAAUAUUACGCUGC, the “self-splicing fitness (ln)” value (37 °C) was -2.29 ± 0.37. In the case of CUCAAGCAAUAUUACGACGC, the “self-splicing fitness (ln)” value is, setting by setting: (30 °C) -1.75 ± 0.24; (37 °C) -2.18 ± 0.42.

For the sequence AGAUAGCAAUAUUACGUCCG, the “self-splicing fitness (ln)” value runs as follows: (30 °C) 0.235 ± 0.1; (37 °C) -0.122 ± 0.11. For CCGAAGCAAUAUUACGUUCA the same measures were -2.76 ± 0.16 and -0.988 ± 0.23.

As for GCUGAGCAAUAUUACGGCUC, under “37 °C”, the “self-splicing fitness (ln)” value was -1.71 ± 0.25. As for UGAAAGCAAUAUUACGCUGU, the “self-splicing fitness (ln)” value by setting is: (30 °C) -3.67 ± 0.19; (37 °C) -1.73 ± 0.17. For the sequence ACUUAGCAAUAUUACGUAUG, the “self-splicing fitness (ln)” value runs as follows: (30 °C) -3.35 ± 0.22; (37 °C) -2.2 ± 0.16. With CGGUAGCAAUAUUACGGUCU, the “self-splicing fitness (ln)” value is, setting by setting: (30 °C) -0.673 ± 0.068; (37 °C) -0.251 ± 0.093. For GGACAGCAAUAUUACGACUU the same measures were -0.232 ± 0.085 and 1.19 ± 0.1. For UUACAGCAAUAUUACGAAGU the same measures were -3.35 ± 0.29 and -2.7 ± 0.36. For CUGAAGCAAUAUUACGAUAU the same measures were -3.39 ± 0.16 and -1.27 ± 0.19.

Take GAGCAGCAAUAUUACGCGUU: the “self-splicing fitness (ln)” value (30 °C) is -3.08 ± 0.12 and the “self-splicing fitness (ln)” value (37 °C) is -1.32 ± 0.12. In the case of UCUUAGCAAUAUUACGAUAC, the “self-splicing fitness (ln)” value (37 °C) was -3.06 ± 0.34.

AAUAAGCAAUAUUACGUUCU: the “self-splicing fitness (ln)” value is, setting by setting: (30 °C) -0.338 ± 0.077; (37 °C) 0.0226 ± 0.11.

Take CCACAGCAAUAUUACGCUGU: the “self-splicing fitness (ln)” value runs as follows: (30 °C) -4.34 ± 0.18; (37 °C) -3.31 ± 0.27.

As for CGACAGCAAUAUUACGCGGU, the “self-splicing fitness (ln)” value is -4.5 ± 0.15 (30 °C) and -2.85 ± 0.14 (37 °C). Turning to GACGAGCAAUAUUACGAAAG, the “self-splicing fitness (ln)” value (30 °C) was -3.59 ± 0.43 and the “self-splicing fitness (ln)” value (37 °C) is -1.53 ± 0.37. For ACUCAGCAAUAUUACGAAGG the same measures were -0.983 ± 0.1 and -1.19 ± 0.14.

AAACAGCAAUAUUACGUGUC: the “self-splicing fitness (ln)” value (30 °C) was -4.08 ± 0.15 and the “self-splicing fitness (ln)” value (37 °C) was -2.78 ± 0.13. With GGAGAGCAAUAUUACGCAAA, the “self-splicing fitness (ln)” value (30 °C) is -3.82 ± 0.43.

With AGACAGCAAUAUUACGCAGC, the “self-splicing fitness (ln)” value is -2.72 ± 0.23 (30 °C) and -2.19 ± 0.39 (37 °C). On the same counts, the results for GAAAAGCAAUAUUACGGAGC are -2.46 ± 0.16 and -0.743 ± 0.12.

Consider GUCUAGCAAUAUUACGUAGU, for which the “self-splicing fitness (ln)” value by setting is: (30 °C) -0.529 ± 0.087; (37 °C) 0.276 ± 0.092. On the same counts, the results for CAAUAGCAAUAUUACGACAA are -3.42 ± 0.18 and -2.07 ± 0.15. For the sequence GCAUAGCAAUAUUACGGGGU, the “self-splicing fitness (ln)” value by setting is: (30 °C) -3.74 ± 0.23; (37 °C) -1.99 ± 0.13.

In the case of CAAAAGCAAUAUUACGAGAC, the “self-splicing fitness (ln)” value runs as follows: (30 °C) -3.62 ± 0.39; (37 °C) -2.36 ± 0.21. On the same counts, the results for UGCCAGCAAUAUUACGGCUA are 0.121 ± 0.12 and 0.121 ± 0.12. In the case of UAGCAGCAAUAUUACGCCGG, the “self-splicing fitness (ln)” value was -0.94 ± 0.096 (30 °C) and -0.0813 ± 0.15 (37 °C). For CAAAAGCAAUAUUACGAAAC the same measures were -4.17 ± 0.39 and -3.75 ± 0.33. On the same counts, the results for CGAUAGCAAUAUUACGAUUC are -3.87 ± 0.39 and -0.777 ± 0.17. CCAGAGCAAUAUUACGAUUC: the “self-splicing fitness (ln)” value was -4.06 ± 0.22 (30 °C) and -2.67 ± 0.21 (37 °C). As to GGCUAGCAAUAUUACGCUCU, the “self-splicing fitness (ln)” value was -2.35 ± 0.31 (30 °C) and -0.975 ± 0.19 (37 °C).

Take ACAAAGCAAUAUUACGUGAU: the “self-splicing fitness (ln)” value by setting is: (30 °C) -1.51 ± 0.063; (37 °C) -1.09 ± 0.086.

As to CAGUAGCAAUAUUACGGUAC, the “self-splicing fitness (ln)” value reads like this: (30 °C) -5 ± 0.45; (37 °C) -3 ± 0.27. On the same counts, the results for AUCCAGCAAUAUUACGACUG are -3.86 ± 0.3 and -2.95 ± 0.28. On the same counts, the results for GAAUAGCAAUAUUACGCCCU are -0.167 ± 0.19 and 0.00214 ± 0.21. Turning to GGGGAGCAAUAUUACGUACU, the “self-splicing fitness (ln)” value was -1.58 ± 0.17 (30 °C) and -0.886 ± 0.16 (37 °C). On the same counts, the results for AACUAGCAAUAUUACGCUGU are -3.41 ± 0.16 and -3.84 ± 0.32. For ACGAAGCAAUAUUACGCGGU, the “self-splicing fitness (ln)” value runs as follows: (30 °C) -3.65 ± 0.18; (37 °C) -1.48 ± 0.1.

In the case of UCCUAGCAAUAUUACGGUGU, the “self-splicing fitness (ln)” value runs as follows: (30 °C) -1.71 ± 0.067; (37 °C) -0.222 ± 0.097.

Turning to GUCUAGCAAUAUUACGGAGG, the “self-splicing fitness (ln)” value is, setting by setting: (30 °C) -3.98 ± 0.3; (37 °C) -1.59 ± 0.18. For UCAAAGCAAUAUUACGUUAC, the “self-splicing fitness (ln)” value (37 °C) is -2.01 ± 0.12. In the case of ACCGAGCAAUAUUACGAGCC, the “self-splicing fitness (ln)” value (30 °C) is -3.21 ± 0.23 and the “self-splicing fitness (ln)” value (37 °C) was -3.23 ± 0.32. For AGCCAGCAAUAUUACGGCGC the same measures were -1.51 ± 0.13 and -0.844 ± 0.16.

For the sequence CGUAAGCAAUAUUACGUUAU, the “self-splicing fitness (ln)” value (30 °C) is -4.56 ± 0.26 and the “self-splicing fitness (ln)” value (37 °C) is -1.45 ± 0.19. Take CAAGAGCAAUAUUACGUGGC: the “self-splicing fitness (ln)” value was -3.77 ± 0.2 (30 °C) and -3.41 ± 0.28 (37 °C). With UGAGAGCAAUAUUACGCUAU, the “self-splicing fitness (ln)” value is, setting by setting: (30 °C) -3.09 ± 0.35; (37 °C) -1.48 ± 0.46. In the case of ACGUAGCAAUAUUACGUUAU, the “self-splicing fitness (ln)” value (30 °C) was -3.76 ± 0.17 and the “self-splicing fitness (ln)” value (37 °C) was -2.34 ± 0.16. For GAUGAGCAAUAUUACGUACG the same measures were -2.59 ± 0.35 and -1.55 ± 0.5. With GGGCAGCAAUAUUACGGCGC, the “self-splicing fitness (ln)” value runs as follows: (30 °C) -0.77 ± 0.11; (37 °C) 0.0143 ± 0.14. Regarding UAGAAGCAAUAUUACGCAUC, the “self-splicing fitness (ln)” value (30 °C) is -3 ± 0.23 and the “self-splicing fitness (ln)” value (37 °C) was -3.37 ± 0.31. Turning to AACUAGCAAUAUUACGGAAC, the “self-splicing fitness (ln)” value runs as follows: (30 °C) -2.99 ± 0.21; (37 °C) -2.08 ± 0.3. In the case of GCCAAGCAAUAUUACGUAUU, the “self-splicing fitness (ln)” value was -3.29 ± 0.16 (30 °C) and -2.28 ± 0.14 (37 °C).

In the case of GUCUAGCAAUAUUACGUCUG, the “self-splicing fitness (ln)” value is -2.49 ± 0.14 (30 °C) and -1.51 ± 0.13 (37 °C). Take CCUCAGCAAUAUUACGCAAU: the “self-splicing fitness (ln)” value (30 °C) was -3.87 ± 0.2 and the “self-splicing fitness (ln)” value (37 °C) was -2.01 ± 0.18. On the same counts, the results for UUUUAGCAAUAUUACGACGA are -0.357 ± 0.14 and 0.422 ± 0.19.

With UUCGAGCAAUAUUACGCGGU, the “self-splicing fitness (ln)” value is, setting by setting: (30 °C) -3.26 ± 0.2; (37 °C) -1.17 ± 0.2. In the case of CCCUAGCAAUAUUACGGCAC, the “self-splicing fitness (ln)” value was -3.42 ± 0.21 (30 °C) and -1.5 ± 0.2 (37 °C). With UUUGAGCAAUAUUACGGGAU, the “self-splicing fitness (ln)” value is, setting by setting: (30 °C) -2.91 ± 0.2; (37 °C) -3.24 ± 0.32. On the same counts, the results for GGUUAGCAAUAUUACGGAUC are -1.53 ± 0.18 and 0.131 ± 0.28. Turning to UAGGAGCAAUAUUACGUAUU, the “self-splicing fitness (ln)” value (30 °C) is -1.97 ± 0.36 and the “self-splicing fitness (ln)” value (37 °C) was -2.45 ± 0.41. On the same counts, the results for AUCAAGCAAUAUUACGUGGC are -4.3 ± 0.37 and -3.52 ± 0.35. As to AUGCAGCAAUAUUACGUACA, the “self-splicing fitness (ln)” value reads like this: (30 °C) -0.892 ± 0.064; (37 °C) -0.686 ± 0.076. On the same counts, the results for UCUCAGCAAUAUUACGCACA are -1.72 ± 0.19 and -0.264 ± 0.15. For UUUUAGCAAUAUUACGACGU the same measures were -2.06 ± 0.25 and -1.24 ± 0.22. On the same counts, the results for CGGUAGCAAUAUUACGACCG are -2.88 ± 0.36 and -2.07 ± 0.42.

CCUUAGCAAUAUUACGGGCC: the “self-splicing fitness (ln)” value by setting is: (30 °C) -2.94 ± 0.31; (37 °C) -2.54 ± 0.35. For AAUUAGCAAUAUUACGCAGU the same measures were -2.78 ± 0.16 and -1.3 ± 0.2. For CGCUAGCAAUAUUACGCCAA, the “self-splicing fitness (ln)” value (37 °C) is -0.881 ± 0.32.

Turning to AUACAGCAAUAUUACGUGUG, the “self-splicing fitness (ln)” value (30 °C) is -1.73 ± 0.051 and the “self-splicing fitness (ln)” value (37 °C) was -0.977 ± 0.062. For GCGCAGCAAUAUUACGGCAG the same measures were -3.47 ± 0.15 and -2.85 ± 0.19. GAUUAGCAAUAUUACGCACA: the “self-splicing fitness (ln)” value is -0.341 ± 0.17 (30 °C) and -0.721 ± 0.12 (37 °C). For UGUCAGCAAUAUUACGAUCA the same measures were -0.048 ± 0.086 and -0.0719 ± 0.11.
